{"source": "patent US20150267232A1", "about": "“IN VIVO AND IN VITRO CARBENE INSERTION AND NITRENE TRANSFER REACTIONS CATALYZED BY HEME ENZYMES” (California Institute of Technology, priority 2012, published 2015)", "key": {"[1]": {"test": "P450BM3 compilation plate screen (GC, cyclopropane peaks)", "format": "biochemical", "conditions": "P450BM3 variants"}, "[2]": {"test": "Whole-cell C—H amination of azide 1", "format": "cell-based, E. coli BL21(DE3)", "conditions": "intact E. coli cells; for Yield sulfonamide (%) / Yield sultam (%): OD600=30, 2 mM azide 1, 24 hours; for Yield sulfonamide (%) / Yield sultam (%) / TTN: anaerobic; for TTN: added glucose; for % ee: (S − R)/(S + R)", "method": "Reaction conditions were as follows: 2 mM azide 1, 25 mM glucose, E. coli BL21(DE3) cells in M9-N minimal medium (OD600=30), 2.5% DMSO, oxygen depletion system (100 U ml^−1 glucose oxidase, 1400 U ml^−1 catalase) reacted for 24 hours under anaerobic conditions at 298 K. Yields determined by HPLC quantification.\n(§1) Whole cell reactions used E. coli BL21(DE3) cells containing P450 or P411 catalysts, which were expressed and prepared as described elsewhere (Coelho, P. S. et al., Highly efficient carbene transfer to olefins catalyzed in vivo. Submitted (2013)). Following expression, cells were resuspended to an OD600 of 30 in M9 salts lacking NH4Cl (M9-N), and then degassed by sparging with argon in a sealed 6 mL crimp vial for at least 0.5 h. Separately, glucose (250 mM dissolved in 1×M9-N, 40 μL, or multiples thereof) was degassed by sparging with argon for at least five minutes. The oxygen quenching mixture was added to sealed 2 mL crimp vials containing stir bars and the headspace of the vials was purged with argon for five minutes at which time glucose, and then cells were added by syringe. Substrate (80 mM arylsulfonyl azide, 10 uL in DMSO) was added via syringe, and the reactions were stirred at room temperature for 24 h under positive argon pressure.\nas §1, with “E.” for “Whole cell reactions used E.”, “catalysts” for “catalysts, which”, “Coelho,” for “(Coelho,”, “μL” for “uL”, “pressure. Reactions were quenched in a manner identical to reactions containing purified enzymes as described above. For chiral HPLC, the reactions were extracted and purified in an identical manner as for reactions that employed purified enzymes. Lyophilized intact cells containing sucrose as a cryoprotectant were prepared as described elsewhere (Coelho, P. S. et al., Highly efficient carbene transfer to olefins catalyzed in vivo. Submitted (2013)). The resulting cell powder, containing expressed ABC-CIS (26 mg) were added along with a stir bar to a 2 mL crimp vial and then sealed. The headspace of the vial was degassed, oxygen quenching system (40 μL) was added via syringe, followed by degassed glucose (250 mM, 40 μL), M9-N (310 μL), and finally substrate (80 mM 1, 10 μL). Lyophilized cell reactions were stirred for 24 h at room temperature, then quenched and analyzed as described above. […]” for “pressure.”\nThe preparative reaction was scaled up proportionally from small-scale reactions. E. coli BL21 cells containing ABC-CIS (OD600 30, 90 mL in M9-N) were sparged with argon for 45 minutes in a round bottom flask (250 mL) containing a stir bar. Separately, glucose solution (250 mM, 11.6 mL) was sparged with argon in a conical flask. The oxygen quenching mixture (10×, 11.6 mL) was degassed in a conical flask that was placed under high vacuum until slight foaming occurred (1-2 s) and then back-filled with argon; this sequence was repeated several times. Sparged glucose solution was then added to the anaerobic cell suspension via syringe, followed by the oxygen quenching system. Finally, substrate 1 (80 mM, 2.9 mL DMSO) was added dropwise via syringe, and the reaction was stirred for 24 h at room temperature. To quench the reaction, dilute HCl (3 M, 8.7 mL) and acetonitrile (125 mL) were added. […]"}}, "note": "Values joined by “and” are separate entries in the source; they are usually repeats but may differ in a detail not shown here. Equal values may be shown once.", "data": [{"molecule": "P450BM3: wild-type cytochrome P450BM3 from Bacillus megaterium (SEQ ID NO: 1) (protein, listed as Bacillus megaterium, cytochrome P450NADPH-P-450 reductase precursor, cytochrome P450 (BM3), CYP102A1) TIKEMPQPKTFGELKNLPLLNTDKPVQALMKIADELGEIFKFEAPGRVTRYLSSQRLIKEACDESRFDKNLSQALKFVRDFAGDGLFTSWTHEKNWKKAHNILLPSFSQQAMKGYHAMMVDIAVQLVQKWERLNADEHIEVPEDMTRLTLDTIGLCGFNYRFNSFYRDQPHPFITSMVRALDEAMNKLQRANPDDPAYDENKRQFQEDIKVMNDLVDKIIADRKASGEQSDDLLTHMLNGKDPETGEPLDDENIRYQIITFLIAGHETTSGLLSFALYFLVKNPHVLQKAAEEAARVLVDPVPSYKQVKQLKYVGMVLNEALRLWPTAPAFSLYAKEDTVLGGEYPLEKGDELMVLIPQLHRDKTIWGDDVEEFRPERFENPSAIPQHAFKPFGNGQRACIGQQFALHEATLVLGMMLKHFDFEDHTNYELDIKETLTLKPEGFVVKAKSKKIPLGGIPSPSTEQSAKKVRKKAENAHNTPLLVLYGSNMGTAEGTARDLADIAMSKGFAPQVATLDSHAGNLPREGAVLIVTASYNGHPPDNAKQFVDWLDQASADEVKGVRYSVFGCGDKNWATTYQKVPAFIDETLAAKGAENIADRGEADASDDFEGTYEEWREHMWSDVAAYFNLDIENSEDNKSTLSLQFVDSAADMPLAKMHGAFSTNVVASKELQQPGSARSTRHLEIELPKEASYQEGDHLGVIPRNYEGIVNRVTARFGLDASQQIRLEAEEEKLAHLPLAKTVSVEELLQYVELQDPVTRTQLRAMAAKTVCPPHKVELEALLEKQAYKEQVLAKRLTMLELLEKYPACEMKFSEFIALLPSIRPRYYSISSSPRVDEKQASITVSVVSGEAWSGYGEYKGIASNYLAELQEGDTITCFISTPQSEFTLPKDPETPLIMVGPGTGVAPFRGFVQARKQLKEQGQSLGEAHLYFGCRSPHEDYLYQEELENAQSEGIITLHTAFSRMPNQPKTYVQHVMEQDGKKLIELLDQGAHFYICGDGSQMAPAVEATLMKSYADVHQVSEADARLWLQQLEEKGRYAKDVWAG", "values": [{"measurement": "ee (cis)", "setting": "[1]; (R,S)-(S,R), chiral β-CDX GC", "value": 7}, {"measurement": "de", "setting": "[1]; diastereomeric excess = ([cis] − [trans])/([cis] + [trans])", "value": "−81"}, {"measurement": "Absolute activity", "setting": "[1]; sum of the area of the cyclopropane peaks over the area of the internal standard", "value": 0.00224}, {"measurement": "Yield sulfonamide (%)", "setting": "[2]", "value": 33, "unit": "%"}, {"measurement": "Yield sultam (%)", "setting": "[2]", "value": 0.5, "unit": "%"}, {"measurement": "TTN", "setting": "[2]", "value": 5.1}]}, {"molecule": "ABC-T268A: P450BM3 variant: T268A, C400S (protein, listed as Bacillus megaterium, cytochrome P450NADPH-P-450 reductase precursor, cytochrome P450 (BM3), CYP102A1, P450BM3 variant: T268A, C400S) TIKEMPQPKTFGELKNLPLLNTDKPVQALMKIADELGEIFKFEAPGRVTRYLSSQRLIKEACDESRFDKNLSQALKFVRDFAGDGLFTSWTHEKNWKKAHNILLPSFSQQAMKGYHAMMVDIAVQLVQKWERLNADEHIEVPEDMTRLTLDTIGLCGFNYRFNSFYRDQPHPFITSMVRALDEAMNKLQRANPDDPAYDENKRQFQEDIKVMNDLVDKIIADRKASGEQSDDLLTHMLNGKDPETGEPLDDENIRYQIITFLIAGHEATSGLLSFALYFLVKNPHVLQKAAEEAARVLVDPVPSYKQVKQLKYVGMVLNEALRLWPTAPAFSLYAKEDTVLGGEYPLEKGDELMVLIPQLHRDKTIWGDDVEEFRPERFENPSAIPQHAFKPFGNGQRASIGQQFALHEATLVLGMMLKHFDFEDHTNYELDIKETLTLKPEGFVVKAKSKKIPLGGIPSPSTEQSAKKVRKKAENAHNTPLLVLYGSNMGTAEGTARDLADIAMSKGFAPQVATLDSHAGNLPREGAVLIVTASYNGHPPDNAKQFVDWLDQASADEVKGVRYSVFGCGDKNWATTYQKVPAFIDETLAAKGAENIADRGEADASDDFEGTYEEWREHMWSDVAAYFNLDIENSEDNKSTLSLQFVDSAADMPLAKMHGAFSTNVVASKELQQPGSARSTRHLEIELPKEASYQEGDHLGVIPRNYEGIVNRVTARFGLDASQQIRLEAEEEKLAHLPLAKTVSVEELLQYVELQDPVTRTQLRAMAAKTVCPPHKVELEALLEKQAYKEQVLAKRLTMLELLEKYPACEMKFSEFIALLPSIRPRYYSISSSPRVDEKQASITVSVVSGEAWSGYGEYKGIASNYLAELQEGDTITCFISTPQSEFTLPKDPETPLIMVGPGTGVAPFRGFVQARKQLKEQGQSLGEAHLYFGCRSPHEDYLYQEELENAQSEGIITLHTAFSRMPNQPKTYVQHVMEQDGKKLIELLDQGAHFYICGDGSQMAPAVEATLMKSYADVHQVSEADARLWLQQLEEKGRYAKDVWAG", "values": [{"measurement": "Yield sulfonamide (%)", "setting": "[2]", "value": 45, "unit": "%"}, {"measurement": "Yield sultam (%)", "setting": "[2]", "value": 30, "unit": "%"}, {"measurement": "TTN", "setting": "[2]", "value": "245 and 250"}, {"measurement": "% ee", "setting": "[2]", "value": 89, "unit": "%"}]}, {"molecule": "BM3-T268A: P450BM3 variant: T268A (protein, listed as Bacillus megaterium, cytochrome P450NADPH-P-450 reductase precursor, cytochrome P450 (BM3), CYP102A1) TIKEMPQPKTFGELKNLPLLNTDKPVQALMKIADELGEIFKFEAPGRVTRYLSSQRLIKEACDESRFDKNLSQALKFVRDFAGDGLFTSWTHEKNWKKAHNILLPSFSQQAMKGYHAMMVDIAVQLVQKWERLNADEHIEVPEDMTRLTLDTIGLCGFNYRFNSFYRDQPHPFITSMVRALDEAMNKLQRANPDDPAYDENKRQFQEDIKVMNDLVDKIIADRKASGEQSDDLLTHMLNGKDPETGEPLDDENIRYQIITFLIAGHEATSGLLSFALYFLVKNPHVLQKAAEEAARVLVDPVPSYKQVKQLKYVGMVLNEALRLWPTAPAFSLYAKEDTVLGGEYPLEKGDELMVLIPQLHRDKTIWGDDVEEFRPERFENPSAIPQHAFKPFGNGQRACIGQQFALHEATLVLGMMLKHFDFEDHTNYELDIKETLTLKPEGFVVKAKSKKIPLGGIPSPSTEQSAKKVRKKAENAHNTPLLVLYGSNMGTAEGTARDLADIAMSKGFAPQVATLDSHAGNLPREGAVLIVTASYNGHPPDNAKQFVDWLDQASADEVKGVRYSVFGCGDKNWATTYQKVPAFIDETLAAKGAENIADRGEADASDDFEGTYEEWREHMWSDVAAYFNLDIENSEDNKSTLSLQFVDSAADMPLAKMHGAFSTNVVASKELQQPGSARSTRHLEIELPKEASYQEGDHLGVIPRNYEGIVNRVTARFGLDASQQIRLEAEEEKLAHLPLAKTVSVEELLQYVELQDPVTRTQLRAMAAKTVCPPHKVELEALLEKQAYKEQVLAKRLTMLELLEKYPACEMKFSEFIALLPSIRPRYYSISSSPRVDEKQASITVSVVSGEAWSGYGEYKGIASNYLAELQEGDTITCFISTPQSEFTLPKDPETPLIMVGPGTGVAPFRGFVQARKQLKEQGQSLGEAHLYFGCRSPHEDYLYQEELENAQSEGIITLHTAFSRMPNQPKTYVQHVMEQDGKKLIELLDQGAHFYICGDGSQMAPAVEATLMKSYADVHQVSEADARLWLQQLEEKGRYAKDVWAG", "values": [{"measurement": "Yield sulfonamide (%)", "setting": "[2]", "value": 51, "unit": "%"}, {"measurement": "Yield sultam (%)", "setting": "[2]", "value": 7.8, "unit": "%"}, {"measurement": "TTN", "setting": "[2]", "value": 26}, {"measurement": "% ee", "setting": "[2]", "value": 84, "unit": "%"}]}]}
